According to US20050192209A1:
Values joined by “and” are separate entries in the source; they are usually repeats but may differ in a detail not shown here. Equal entries are not always repeated.

Target: human heparanase, active 50 kDa form (human) (UniProt Q9Y251)
Experiment: cell-based or functional assay

Chain of UniProt Q9Y251 (Q9Y251 158-543 limits assumed, form in doubt): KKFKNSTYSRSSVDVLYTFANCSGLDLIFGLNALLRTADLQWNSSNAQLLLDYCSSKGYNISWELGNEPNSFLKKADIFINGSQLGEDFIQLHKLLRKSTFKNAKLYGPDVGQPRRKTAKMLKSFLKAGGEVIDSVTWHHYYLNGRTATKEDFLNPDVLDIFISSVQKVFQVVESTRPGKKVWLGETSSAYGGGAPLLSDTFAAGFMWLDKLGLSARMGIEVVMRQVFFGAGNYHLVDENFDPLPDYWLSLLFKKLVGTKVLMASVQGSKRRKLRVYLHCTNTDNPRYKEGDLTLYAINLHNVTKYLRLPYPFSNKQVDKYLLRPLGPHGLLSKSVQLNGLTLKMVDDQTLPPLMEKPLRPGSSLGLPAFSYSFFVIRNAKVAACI

Row | Molecule | inhibition of heparanase activity (35S-labeled ECM degradation) | inhibition of heparanase activity (release of HS degradation fragments from 35S-labeled ECM, gel filtration) | inhibition of recombinant heparanase activity by eosinophil lysates (cellular MBP), 35S-labeled ECM degradation (fold excess of MBP over heparanase)
1 | myelin basic protein | 20 ng/mL |  | 
2 | poly-L-arginine (peptide) | 5 ng/mL and 13 ng/mL |  | 
3 | Major Basic Protein (MBP) purified from human eosinophils (protein, UniProt P13727 106-222, looked up) TCRYLLVRSLQTFSQAWFTCRRCYRGNLVSIHNFNINYRIQCSVSALNQGQVWIGGRITGSGRCRRFQWVDGSRWNFAYWAAHQPWSRGGHCVALCTRGGHWRRAHCLRRLPFICSY |  | 80 nM and 200 nM | 2.5
